Values of other authors as cited in publication PMC2683804.

Tests used:
[1] = target: amyloid-β 1-42 1-42 (Homo sapiens) (UniProt P05067)
[2] = target: amyloid-β 1-40 1-40 (Homo sapiens) (UniProt P05067)

Q: Which Kd [1] does the source give for “human serum albumin (from UniProt P02768)” here?
A: Its Kd is 10.5 µM.

Q: And the Kd [2]?
A: Its Kd is 9.25 µM.
